Data reported in publication PMC3040192.

Assays:
Test in all cases: mass spectrometry
Conditions in all cases: 37 °C (72 h incubation), 50 mM NaCl plus 50 mM buffer, 50 mM MES (pH 5.0-7.5) or 50 mM HEPES (pH 8.0-9.0), folded
His114 = His114 (UniProt position 114, KLYLTHIDAEV)
His124 = His124 (UniProt position 124, VEGDTHFPDYE)
His141 = His141 (UniProt position 141, VFSEFHDADAQ)
His149 = His149 (UniProt position 149, DAQNSHSYCFE)
His45 = His45 (UniProt position 45, VIMGRHTWESI)
[1] = Ternary complex with folate and NADP+ (DHFR-folate-NADP+; five-fold molar excess of each ligand added during preparation)
[2] = Ternary complex with methotrexate and NADPH (DHFR-MTX-NADPH; five-fold molar excess of each ligand added during preparation)
[3] = Binary complex with methotrexate (DHFR-MTX; five-fold molar excess of MTX added during preparation)

Q: What does the source list for “Dihydrofolate reductase (DHFR) (Escherichia coli)”?
A: pKa (His114; [1]): 7.17 (±0.16); pKa (His114; [2]): 6.99 (±0.10); pKa (His114; apo-DHFR (no ligand)): 6.84 (±0.20); pKa (His124; [3]): 7.02 (±0.06); pKa (His124; [1]): 7.61 (±0.19); pKa (His124; [2]): 7.17 (±0.20); pKa (His124; apo-DHFR (no ligand)): 7.60 (±0.03); pKa (His141; [3]): 8.12 (±0.14); pKa (His141; [1]): 8.14 (±0.11); pKa (His141; [2]): 8.29 (±0.10); pKa (His141; apo-DHFR (no ligand)): 8.04 (±0.08); pKa (His149; [3]): 6.13 (±0.13); pKa (His149; [1]): 6.84 (±0.17); pKa (His149; [2]): 6.17 (±0.10); pKa (His149; apo-DHFR (no ligand)): 6.51 (±0.04); pKa (His45; [3]): 7.15 (±0.04); pKa (His45; [1]): 7.30 (±0.07); pKa (His45; [2]): 7.43 (±0.03); pKa (His45; apo-DHFR (no ligand)): 6.99 (±0.07)
